Here are results for two molecules from publication PMC5716094.

One data set concerns the target T1, B-domain of TRF2 (human, UniProt Q15554 43-86).
T1 chain: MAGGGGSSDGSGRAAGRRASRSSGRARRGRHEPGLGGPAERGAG
The data set can be described thus: SAXS.

The target in data set [1] is T2, ΔBTRF2 (human, UniProt Q15554 87-542, del43-86). The data set can be described thus: fluorescence anisotropy. A general note: Fluorescence polarisation rises when a labelled molecule tumbles more slowly, as on binding a larger partner.
The target in data set [2] is T3, TRF2 (human, UniProt Q15554 43-542). The data set can be described thus: fluorescence anisotropy.
Data set [3] deals with T2, ΔBTRF2. In words: fluorescence anisotropy. This is another data set of the same source.
The target in data set [4] is T3, TRF2. The data set can be described thus: fluorescence anisotropy. The source holds these as a separate data set.

Where two headings read alike, the source gives them in different places.

T2 sequence (Q15554 87-542, stated change not applied): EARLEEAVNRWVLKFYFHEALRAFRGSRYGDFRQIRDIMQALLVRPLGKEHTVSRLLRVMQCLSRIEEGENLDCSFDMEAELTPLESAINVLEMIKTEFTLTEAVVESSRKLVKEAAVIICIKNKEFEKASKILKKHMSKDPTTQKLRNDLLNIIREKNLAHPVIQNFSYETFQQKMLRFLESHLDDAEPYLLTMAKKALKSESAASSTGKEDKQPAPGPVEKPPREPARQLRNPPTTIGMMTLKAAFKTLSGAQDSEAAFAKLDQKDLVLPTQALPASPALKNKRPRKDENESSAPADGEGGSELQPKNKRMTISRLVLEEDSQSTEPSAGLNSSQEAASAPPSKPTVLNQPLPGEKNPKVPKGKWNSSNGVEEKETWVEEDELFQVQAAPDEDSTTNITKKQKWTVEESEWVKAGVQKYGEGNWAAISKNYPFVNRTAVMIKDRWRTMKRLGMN

B1: R2 duplex (dsDNA)
DNA 1: GTTAGGGTTAGGGTTAG
DNA 2: CTAACCCTAACCCTAAC
Turning to B1, the binding result in the data set with B-domain of TRF2 and with ΔBTRF2 [1] was “binds” throughout. The binding signal with TRF2 [2] is ~2 fold lower Kd than ΔBTRF2.

B2: R5 duplex (dsDNA)
DNA 1: GTTAGGGTTAGGGTTAGGGTTAGGGTTAGGGTTAG
DNA 2: CTAACCCTAACCCTAACCCTAACCCTAACCCTAAC
For the molecule B2, the binding signal with ΔBTRF2 [3] was ~2 fold higher Kd than TRF2; with TRF2 [4], ~2 fold lower Kd than ΔBTRF2.
